Data published in US20100260765A1 (AstraZeneca / MedImmune, published 2010).

Key:
[1] = target: T1, human KDR (VEGFR2) on cells (human, UniProt P35968 20-1356); experiment: cell-based or functional assay
[2] = target: T1, human KDR (VEGFR2) on cells; experiment: cell-based or functional assay; remark: listed apart in the source
[3] = target: T1, human KDR (VEGFR2) on cells; experiment: cell-based or functional assay; remark: listed apart in the source
[4] = target: T1, human KDR (VEGFR2) on cells; experiment: FACS on HUVEC, hybridoma supernatant 1:50
Description: HUVECs were seeded at 15,000 cells/well and incubated with 100 μL of sample supernatant (at 1:50 dilution) for one hour at 4° C. The positive control was goat anti-KDR antibody (R&D Systems, Inc.), and negative controls included irrelevant hybridoma supernatants at the same dilution. The cells were then washed and incubated with Cy5-conjugated goat anti-human antibody at 5 μg/mL and 7-Amino-Actinomycin D (7AAD) at 5 μg/mL for 15 minutes at 4° C. Bound KDR was detected using FACS analysis.

[5] = target: T2, mouse KDR (Flk-1)/Fc (Cat. #443-KD/CF, R&D Systems) (mouse, UniProt P35918 20-762); experiment: ELISA, plate-coated Flk-1/Fc 500 ng/mL, hybridoma supernatant 1:5
T2 construct: Bought reagent; also called mouse VEGFR2; KDR mouse ortholog; Fc part of the bought chimera not given
Description: The cross-reactivity of antibodies in the hybridoma supernatant was tested against KDR mouse ortholog (mouse VEGFR2, or Flk-1) and human VEGFR1 (Flt-1). Cross-reactivity was measured using an ELISA based assay.
After washing and blocking the plates, the antibody-containing supernatants were added (at 1:5 dilution) into the coated wells and incubated for one hour at room temperature. The plates were then incubated with mouse anti-human IgG 2, 3 and 4 and subsequently with goat anti-mouse IgG Fc POD, to detect and measure bound antibodies.

[6] = target: T3, soluble KDR (VEGF Receptor 2 D1-7, Cat. #676490, Calbiochem) (human, UniProt P35968 20-764); experiment: ELISA, plate-coated soluble KDR 250 ng/mL, hybridoma supernatant 1:5
T3 construct: extracellular domain; Bought reagent; also called soluble human KDR; immobilized soluble KDR
Description: To screen by binding to immobilized soluble KDR, plates were coated with KDR (Calbiochem) at 250 ng/mL overnight at 4° C. After blocking and washing the coated plates, the candidate hybridoma supernatants (at 1:5 dilution) were transferred to the plates and incubated for one hour at room temperature. The plates were then washed and incubated with secondary antibody (at 1:4000 dilution) for one hour at room temperature.

b-KDRIg4-7-myc-his = target: T4, b-KDRIg4-7-myc-his (UniProt P35968 328-764, prefix 'b-' not explained; captured on neutravidin-coated plates (presumably biotinylated, site not stated)); experiment: ELISA, b-KDRIg4-7-myc-his 1 ug/mL on neutravidin, hybridoma supernatant 1:5
T4 construct: domain: Ig4-7; The text calls it 'a KDR antibody containing the Ig4-7 domain'; it is read as the KDR fragment; Purified on a nickel column; also called Ig4-7 domain of KDR; soluble KDR Ig4-7; not shown: myc-his tag of the pSecTag vector
Description: To screen by binding to the Ig4-7 domain of KDR, plates were first coated with neutravadin (Pierce) at 4 μg/mL and incubated overnight at 4° C. The plates were then blocked and subsequently incubated with b-KDRIg4-7-myc-his at 1 μg/mL for one hour at room temperature. Candidate hybridoma supernatants (at 1:5 dilution) were transferred to the plates and incubated for one hour at room temperature. The plates were then washed and incubated with goat anti-human IgG Fc POD (at 1:4000 dilution) for one hour at room temperature.

T4 sequence (P35968 328-764): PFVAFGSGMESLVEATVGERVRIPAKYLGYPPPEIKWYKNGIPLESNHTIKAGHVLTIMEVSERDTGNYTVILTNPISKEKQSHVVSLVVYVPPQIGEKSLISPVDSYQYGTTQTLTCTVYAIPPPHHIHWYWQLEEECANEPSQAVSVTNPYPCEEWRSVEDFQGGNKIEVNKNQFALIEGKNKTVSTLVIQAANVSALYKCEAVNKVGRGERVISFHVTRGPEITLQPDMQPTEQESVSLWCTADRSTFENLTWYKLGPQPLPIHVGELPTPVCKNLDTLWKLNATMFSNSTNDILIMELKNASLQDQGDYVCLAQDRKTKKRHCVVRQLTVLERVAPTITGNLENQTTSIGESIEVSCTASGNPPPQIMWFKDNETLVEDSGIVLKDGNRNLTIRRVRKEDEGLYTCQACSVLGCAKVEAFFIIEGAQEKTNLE
T2 sequence (P35918 20-762): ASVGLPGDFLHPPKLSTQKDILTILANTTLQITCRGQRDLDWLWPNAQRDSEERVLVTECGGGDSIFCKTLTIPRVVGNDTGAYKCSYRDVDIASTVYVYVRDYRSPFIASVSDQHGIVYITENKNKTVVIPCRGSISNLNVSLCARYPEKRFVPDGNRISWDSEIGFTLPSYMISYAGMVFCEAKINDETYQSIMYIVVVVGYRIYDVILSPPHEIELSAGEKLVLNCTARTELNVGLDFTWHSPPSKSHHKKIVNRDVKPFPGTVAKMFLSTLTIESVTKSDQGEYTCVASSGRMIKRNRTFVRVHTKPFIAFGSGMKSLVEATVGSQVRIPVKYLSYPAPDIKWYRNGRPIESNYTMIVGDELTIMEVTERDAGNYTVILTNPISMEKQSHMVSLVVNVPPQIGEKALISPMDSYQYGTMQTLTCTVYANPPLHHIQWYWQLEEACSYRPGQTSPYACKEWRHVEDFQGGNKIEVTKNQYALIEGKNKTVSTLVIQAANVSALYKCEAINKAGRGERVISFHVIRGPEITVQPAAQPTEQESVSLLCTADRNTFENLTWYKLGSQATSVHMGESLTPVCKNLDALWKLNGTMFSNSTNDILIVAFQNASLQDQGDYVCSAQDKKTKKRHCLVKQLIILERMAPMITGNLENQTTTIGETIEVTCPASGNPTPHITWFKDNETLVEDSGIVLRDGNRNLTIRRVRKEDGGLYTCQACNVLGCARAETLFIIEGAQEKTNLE
T1 sequence (P35968 20-1356): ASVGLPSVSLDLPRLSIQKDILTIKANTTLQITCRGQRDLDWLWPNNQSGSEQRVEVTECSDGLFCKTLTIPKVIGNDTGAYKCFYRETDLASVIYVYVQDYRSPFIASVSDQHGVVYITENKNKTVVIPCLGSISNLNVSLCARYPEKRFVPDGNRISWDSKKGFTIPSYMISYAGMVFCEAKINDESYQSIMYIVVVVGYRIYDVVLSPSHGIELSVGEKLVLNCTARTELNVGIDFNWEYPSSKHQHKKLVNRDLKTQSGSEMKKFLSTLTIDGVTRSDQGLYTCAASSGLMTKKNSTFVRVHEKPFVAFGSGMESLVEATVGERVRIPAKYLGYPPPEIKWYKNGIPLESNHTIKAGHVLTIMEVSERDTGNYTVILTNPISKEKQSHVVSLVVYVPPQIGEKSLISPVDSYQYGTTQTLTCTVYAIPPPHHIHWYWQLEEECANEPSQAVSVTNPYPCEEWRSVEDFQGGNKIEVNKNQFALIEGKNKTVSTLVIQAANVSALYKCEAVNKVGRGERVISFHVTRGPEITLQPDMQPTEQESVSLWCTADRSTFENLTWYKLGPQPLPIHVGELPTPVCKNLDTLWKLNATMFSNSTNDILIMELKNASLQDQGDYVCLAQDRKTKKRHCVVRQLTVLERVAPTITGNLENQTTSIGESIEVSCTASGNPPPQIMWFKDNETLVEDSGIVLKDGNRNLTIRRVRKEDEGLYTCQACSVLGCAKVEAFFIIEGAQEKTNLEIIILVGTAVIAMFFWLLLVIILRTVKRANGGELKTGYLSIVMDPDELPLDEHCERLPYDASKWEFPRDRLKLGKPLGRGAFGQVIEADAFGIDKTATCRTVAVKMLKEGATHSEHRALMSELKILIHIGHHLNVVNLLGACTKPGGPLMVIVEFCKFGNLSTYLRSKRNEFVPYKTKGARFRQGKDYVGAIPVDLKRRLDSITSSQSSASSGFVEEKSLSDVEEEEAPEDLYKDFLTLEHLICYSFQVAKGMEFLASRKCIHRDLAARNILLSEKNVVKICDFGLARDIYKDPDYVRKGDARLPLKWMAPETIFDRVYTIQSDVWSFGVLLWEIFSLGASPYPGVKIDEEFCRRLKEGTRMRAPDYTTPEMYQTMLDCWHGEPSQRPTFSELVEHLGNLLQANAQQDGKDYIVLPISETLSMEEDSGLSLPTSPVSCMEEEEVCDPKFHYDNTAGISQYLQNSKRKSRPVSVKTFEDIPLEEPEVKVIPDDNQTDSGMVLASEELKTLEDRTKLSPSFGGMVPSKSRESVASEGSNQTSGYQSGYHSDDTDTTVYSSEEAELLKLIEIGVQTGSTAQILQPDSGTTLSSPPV
T3 sequence (P35968 20-764): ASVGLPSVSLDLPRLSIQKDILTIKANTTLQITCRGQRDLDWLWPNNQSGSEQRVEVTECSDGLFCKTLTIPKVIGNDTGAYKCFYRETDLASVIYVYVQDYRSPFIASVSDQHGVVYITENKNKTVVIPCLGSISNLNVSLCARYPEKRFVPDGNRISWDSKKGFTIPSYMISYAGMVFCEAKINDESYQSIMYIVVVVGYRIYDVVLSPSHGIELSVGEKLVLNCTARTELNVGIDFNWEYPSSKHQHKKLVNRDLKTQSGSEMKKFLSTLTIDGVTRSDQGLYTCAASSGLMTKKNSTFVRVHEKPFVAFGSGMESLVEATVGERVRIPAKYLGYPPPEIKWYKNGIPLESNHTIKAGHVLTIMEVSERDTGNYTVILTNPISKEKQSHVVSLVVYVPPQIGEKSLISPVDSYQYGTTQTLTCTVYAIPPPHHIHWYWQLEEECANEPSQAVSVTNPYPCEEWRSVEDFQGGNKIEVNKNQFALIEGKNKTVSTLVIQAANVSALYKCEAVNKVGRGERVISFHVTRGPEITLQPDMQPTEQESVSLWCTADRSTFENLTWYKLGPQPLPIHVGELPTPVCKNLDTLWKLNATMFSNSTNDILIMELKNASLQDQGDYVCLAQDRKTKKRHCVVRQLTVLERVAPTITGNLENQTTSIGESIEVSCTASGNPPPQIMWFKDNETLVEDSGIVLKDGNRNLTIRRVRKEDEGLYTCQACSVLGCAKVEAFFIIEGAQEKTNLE

Binder	% Inhibition of VEGF165-mediated pTyr Activity, Average [1]	% Inhibition of VEGF165-mediated pTyr Activity, n = 1 [1]	% Inhibition of VEGF165-mediated pTyr Activity, n = 2 [1]	% Inhibition of VEGF165-mediated pTyr Activity, n = 3 [1]	% Inhibition of VEGF-E-mediated pTyr Activity [2]	HUVEC survival (n = 1) 1:10 dilution of supernatant (RLU) [3]	HUVEC survival (n = 2) 1:20 dilution of supernatant (RLU) [3]	FACS Geometric Mean [4]	OD (450 nm) [5]	KDR OD(450 nm) [6]	b-KDRIg4-7 OD(450 nm) (b-KDRIg4-7-myc-his)
anti-KDR monoclonal antibody 32G7 (antibody, V domains shown, Fully human mAb from XenoMouse (IgG2 or IgG4 strain); hybridoma supernatant) VH: EVQLVESGGGLVKPGGSLRLSCAASGFTISSYSMNWVRQAPGKGLEWVSFISSRSNYIYYADSVKGRFTISRDNAKNSLYLQMNSLRAEDTAVYYCSKDDWFEELWGQGTLVTVSS VL: DIQMTQSPSSLSASVGDRVTITCRASQDIRNDLGWYQQKPGKAPKRLIYAASSLQSGVPSRFSGSGSGTEFTLTISSLQPEDFATYYCLQHNSFPWTFGQGTKVEIK	44%	73%	47%	11%	57%	24900 RLU	11900 RLU	28	0.092 OD450	1.07 OD450	0.068 OD450
anti-KDR monoclonal antibody 33B1 (antibody, V domains shown, Fully human mAb from XenoMouse (IgG2 or IgG4 strain); hybridoma supernatant) VH: EVQLVESGGGLVKPGGSLRLSCAASGFTFSSYTMNWVRQAPGKGLEWVSFIDSRSSYIYYADSVKGRFTISRDNAKNSLYLQMNSLRAEDTAVYYCSKDDWFEELWGQGTLVTVSS VL: DIQMTQSPSSLSASVGDRVTITCRASQGIRNDLGWYQQKPGKAPKRLIYATSSLQSGVPSRFSGSGSGTEFTLTISSLQPEDFATYYCLHHNSFPWTFGQGTKVEIK	54%	76%	56%	31%	54%	19400 RLU	12500 RLU	25	0.108 OD450	1.11 OD450	0.058 OD450
anti-KDR monoclonal antibody 33C3 (antibody, V domains shown, Fully human mAb from XenoMouse (IgG2 or IgG4 strain); hybridoma supernatant) VH: QVQLVESGGGLVKPGESLRLSCAASGFTFSDYYMSWIRQAPGKGLEWVSYISHGGSTIYYADSVKGRFTISRDNAKNSLYLQMNSLRVEDTAVYFCARDDFWSGYYFNWFDPWGQGALVTVSS VL: DIQMTQYPLSLSASVGDRVTITCRASQSISSFLNWYHQKPGKAPKLLIYGTSSLQSGVPSRFSGSGSGTDFTLTISSLQPEDFATYYCQQTYSIPLTFGGGTNVEIK	71%	87%	75%	50%	66%	6540 RLU	4710 RLU	20	0.076 OD450	1.15 OD450	3.66 OD450
anti-KDR monoclonal antibody 29H3 (antibody, V domains shown, Fully human mAb from XenoMouse (IgG2 or IgG4 strain); hybridoma supernatant) VH: QVQLVQSGAEVKKPGASVKVSCKASGYTFTSYDINWVRQATGQGLEWMGWMNPNSGKTGYAQKFQGRVTMTRNTSINTAYMELSSLRSEDTAVYYCARGGYSNLGWFDPWGQGTLVTVSS VL: DIQMTQSPSSVSASVGDRVTITCRASQGISSWLVWYHQKPGKAPKLLIYGASSLQSGVPSRFSGSGSGTDFTLTISSLQPEDFATYYCQQANNFPFTFGPGTKVDIK	76%	89%	72%	66%	18%	32700 RLU	544 RLU	27	0.096 OD450	0.83 OD450	0.071 OD450
anti-KDR monoclonal antibody 22B8 (antibody, V domains shown, Fully human mAb from XenoMouse (IgG2 or IgG4 strain); hybridoma supernatant) VH: QLQLQESGPGLVKPSETLSLTCTVSGGSISSRYYYWGWVRQPPGKGLEWIGTIYYSGHTYYNPSLKTRVTISVDTSKNQFSLKLISVTAADTAVYYCATQQLVLYYFDFWGQGTLVTVSS VL: EIVLTQSPGTLSLSPGERAALSCRASQSISSSYLAWYQQRPGQAPRLLIYGASSRATGIPDRFNGSGSGTDFTLTISRLEPEDFAVYYCQQFGSSITFGQGTRLEIK	67%	82%	65%	53%	61%	12900 RLU	3260 RLU	24	0.074 OD450	1.18 OD450	2.81 OD450
anti-KDR monoclonal antibody 30A1 (antibody, V domains shown, Fully human mAb from XenoMouse (IgG2 or IgG4 strain); hybridoma supernatant) VH: QLQLQESGPGLVKPSETLSLTCTVSGGSISSPNYYWGWIRQPPGKGLEWIGTIYYSGNTFYNPSLKSRVTISVDTSKNQFSLKLSSVTAADTAVYYCATQQLVLYYFDFWGQGTLVTVSS VL: EIVLTQSPGTLSLSPGKRAALSCRASQSISSSYLAWYQQKPGQAPRLLIYGASSRATGIPDRFNGSGSGTDFTLTISRLEPEDFAVYYCQQLGSSITFGQGTRLEIK	65%	86%	59%	52%	50%	14400 RLU	9730 RLU	25	0.107 OD450	0.786 OD450	1.21 OD450
anti-KDR monoclonal antibody 33E1 (antibody, V domains shown, Fully human mAb from XenoMouse (IgG2 or IgG4 strain); hybridoma supernatant) VH: QVQLQESGPGLVKPSQTLSLTCTVSGGSISSGDHYWSWIRQHPGKGLEWIGHIYYSGSTDYNPSLKSRVTISVDTSKNHFSLKLNSVTAADTAVYYCARTNSSSWSDWYFDLWGRGTLVTVSS VL: DIVMTQSPDSLAVSLGERATINCKSSQSILYSSNNKNYLAWYQRKPGQPPILLIHWASTRESGVPDRFSGSGSRTDFTLTISSLQAEDVAVYYCQQYFITPWTFGQGTKVEIK	73%	88%	78%	52%	46%	25700 RLU	2310 RLU	14	0.097 OD450	4.55 OD450	0.62 OD450
